Data set [1] deals with T1, CSL (RBP-Jkappa) (UniProt Q06330 1-500). As to the kind of experiment: MST; 200 nM labelled CSL; MST in standard MST buffer (composition and pH not given), premium-treated capillaries, Monolith NT.115; 20 min at room temperature stated for the protein mixes. As to conditions: protein: commercial; tags: RED-NHS dye when labelled; blunt.
Data set [2] deals with T1, CSL (RBP-Jkappa). As to the kind of experiment: MST; second independent experiment; 50 nM labelled DNA; MST in standard MST buffer (composition and pH not given), premium-treated capillaries, Monolith NT.115; 20 min at room temperature stated for the protein mixes. As to conditions: protein: commercial; tags: RED-NHS dye when labelled; label: 647-NHS; blunt.
For data set [3], the target named is T2, UPF1 (UniProt Q92900 1-352+364-1129, internal_change).
T2 sequence: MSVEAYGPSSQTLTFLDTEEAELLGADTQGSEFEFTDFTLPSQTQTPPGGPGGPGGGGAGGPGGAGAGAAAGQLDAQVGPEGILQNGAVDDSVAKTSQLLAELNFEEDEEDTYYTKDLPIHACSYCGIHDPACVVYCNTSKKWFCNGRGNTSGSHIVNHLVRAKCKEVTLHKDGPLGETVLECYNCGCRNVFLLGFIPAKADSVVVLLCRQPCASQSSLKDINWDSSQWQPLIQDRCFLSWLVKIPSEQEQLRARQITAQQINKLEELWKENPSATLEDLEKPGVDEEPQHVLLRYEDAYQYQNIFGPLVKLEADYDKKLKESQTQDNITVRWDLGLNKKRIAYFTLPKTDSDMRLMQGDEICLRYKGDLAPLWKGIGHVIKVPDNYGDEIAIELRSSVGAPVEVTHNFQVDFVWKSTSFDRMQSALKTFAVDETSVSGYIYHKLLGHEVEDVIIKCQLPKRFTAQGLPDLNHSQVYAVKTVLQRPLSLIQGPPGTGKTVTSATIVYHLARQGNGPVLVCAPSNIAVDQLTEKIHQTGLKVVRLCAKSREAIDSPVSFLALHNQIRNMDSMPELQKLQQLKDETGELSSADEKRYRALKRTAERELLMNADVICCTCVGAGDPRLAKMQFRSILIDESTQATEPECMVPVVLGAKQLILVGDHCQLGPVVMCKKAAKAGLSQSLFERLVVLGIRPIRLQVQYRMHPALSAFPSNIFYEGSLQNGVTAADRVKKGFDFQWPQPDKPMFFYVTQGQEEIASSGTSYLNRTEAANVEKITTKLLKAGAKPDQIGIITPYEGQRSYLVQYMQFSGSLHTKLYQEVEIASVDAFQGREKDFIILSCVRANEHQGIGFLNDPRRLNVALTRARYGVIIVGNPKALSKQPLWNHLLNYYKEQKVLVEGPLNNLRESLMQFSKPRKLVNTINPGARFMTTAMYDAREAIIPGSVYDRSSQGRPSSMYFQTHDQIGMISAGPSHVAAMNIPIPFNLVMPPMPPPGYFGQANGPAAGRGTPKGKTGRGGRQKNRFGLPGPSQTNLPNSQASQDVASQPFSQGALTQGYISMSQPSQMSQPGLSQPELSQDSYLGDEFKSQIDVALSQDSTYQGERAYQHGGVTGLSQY
As to the kind of experiment: MST; 50 nM labelled DNA; no binding specificity; MST in standard MST buffer (composition and pH not given), premium-treated capillaries, Monolith NT.115; 20 min at room temperature stated for the protein mixes. As to conditions: protein: commercial; label: 647-NHS; blunt.

Data set [4] concerns the target T1, CSL (RBP-Jkappa). As to the kind of experiment: MST; 50 nM labelled DNA; MST in standard MST buffer (composition and pH not given), premium-treated capillaries, Monolith NT.115; 20 min at room temperature stated for the protein mixes. As to conditions: protein: commercial; tags: RED-NHS dye when labelled; label: 647-NHS; blunt.

Data on three molecules can be found in article PMC6715699.

The Kd is the constant that tells how readily two partners part at equilibrium. Lower therefore signals a tighter complex.

T1 sequence (Q06330 whole entry): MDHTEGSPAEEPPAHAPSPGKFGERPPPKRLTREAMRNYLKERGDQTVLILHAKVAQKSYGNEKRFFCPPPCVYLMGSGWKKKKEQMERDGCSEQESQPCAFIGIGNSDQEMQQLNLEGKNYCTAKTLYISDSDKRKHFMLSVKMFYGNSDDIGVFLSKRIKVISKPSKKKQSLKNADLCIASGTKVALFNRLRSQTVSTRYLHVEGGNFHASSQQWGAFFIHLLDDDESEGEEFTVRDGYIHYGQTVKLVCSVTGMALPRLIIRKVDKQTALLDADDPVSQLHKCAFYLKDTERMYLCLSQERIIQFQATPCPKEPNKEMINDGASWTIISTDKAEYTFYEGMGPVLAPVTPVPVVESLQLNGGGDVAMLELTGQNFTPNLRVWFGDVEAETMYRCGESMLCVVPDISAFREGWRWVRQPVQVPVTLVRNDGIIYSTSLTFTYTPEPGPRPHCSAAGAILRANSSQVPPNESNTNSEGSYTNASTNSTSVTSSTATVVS

B1: SCRAMBLED (dsDNA)
DNA 1: GCTACTCATACCTAGAACG
DNA 2: CGTTCTAGGTATGAGTAGC
With B1, in data set [1], binding was put at a Kd of 3380 ± 77.6 nM.

B2: TELO (TTAGGG)3 (dsDNA)
DNA 1: TTAGGGTTAGGGTTAGGG
DNA 2: CCCTAACCCTAACCCTAA
Take B2: the Kd in data set [2] is 232 ± 15.4 nM; in data set [3], 3520 ± 46.8 nM; in data set [4], 235 ± 23.9 nM.

B3: CSL specific motif (dsDNA)
DNA 1: GTTACTGTGGGAAAGAAAG
DNA 2: CTTTCTTTCCCACAGTAAC
As to B3, the Kd in data set [1] stood at 121 ± 17.4 nM.
